Laboratory results as given in the domain aggregation screens of Martell et al. (2025).

assay: soluble fraction after stress (log2 fold change); higher = more stays soluble; pooled small domains, quantitative proteomics; conditions: stress: 50 degC
Outline: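 After stress at 50°C, the amount of each protein still soluble was measured. This was done on pooled custom libraries of small protein domains, using high-throughput quantitative proteomics. The figure given is a base-two log fold change and stands for aggregation propensity, with higher values meaning more protein stays in solution.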

Row | Sequence | soluble fraction (log2)
1 | HMDNEIMYPIQINGKVRAELFVSTERAMDKQYVLEQAKANEKIQGYLEGNRLVKEIFVPKRIVNLVIAP | 0.197
2 | HMTKNEFLQGLKEELEGRVTHSAIQENIRYYDDYISQEVLKGSTEEEVTESLGGPRIIARTIVDAAYD | -0.0458
3 | HMTLREQISALIKQGKLTQAKLARETGVNGGALSAWINGKYTGNVETVEEPIKHWMALNERK | 0.373
4 | HMDSPVLTAEIKALIDKELEQNAVKLATGLKKQRKRATDIHDALIRQGHEVSYRTVVRYIRNKTAQTS | -0.061
5 | HMASKTGTITATSLNVRSGAATTYSILGTLSNGKTVTIYEESNGWYKINYNGGYGWVSKTYVSTG | -0.435
6 | HMNEYSLVPDIYGMTYDDALSSLRNVGLDGRLALASTNEDLANADTRVVWQSKEAGSIIDKGSNVMFVID | 0.0609
7 | HMVAMYLRVGISNGRRYLSIVQGYRDQVTKKVRHNTVKSLGYLDDLEKHYPDPIAHFKAVVEEMNKKQALE | -0.847
8 | HMANTAKVNVDTANLRETADENSKILKQLSLNDNLEVVEETGDWYKVKNSNVTGYVRKDLVTVEN | 0.371
9 | HMSLTGFYNLTFKQADRLSVIDEAGEEVYKQAIAMGSTTKTIDLSALNAGVYFIRIYNGEVIAQEKIVLN | -1.25
10 | HMNDTNEEAVLSIILKNPQATQGAIAKEVGASLSTVKRIMRNLQKSGKLRREGTNRNGSWVVTGQK | 0.0846
11 | HMKNQQLFNIGDRFQVDGVAYRMEKLFPENGTVEVYNLGVGRHKTMSFEEILALWNSGKLLFEI | -0.185
12 | HMGTLPSLAPSGEKTVRLPNLAGWSLRETMEILQKGGLQLLPIGSGISFKQSPPPGTTLNEGDAVTVWF | 0.0292
13 | HMLADRANMAPAALRQIMTAIDGGNVTPKQIESATGMAHATVARALRKMLDDGLIANDGKGRYTVLT | -0.0609
14 | HMSATPQRMSIINELDSARKNLSAYDLRDSLKDKGHSFNISTIYRVLSFWIDVGVVHKMDSSNTYL | 0.147
15 | HMVAADTVQVPDVTGKTVADAKQALISAGLQVGTVTAKDGKETANTILETSPAAGTSVDKGSKVNLVYSTG | -0.185
16 | HMKQLIGYSVIDIKMGKLGEISFVNSKTAQALIHVSKDGKGFYFPWHKQFVKNIDAEKGIMEVEIPKEFLD | -0.237
17 | HMQDPRITRTRGLILQAFDALLVEKGFHALSVQAIAGRAGINRATFYAHFADKYALLDTSIQE | 0.268
18 | HMSSSMDAIAEIIRSIPRGDHLTAPEVYELAKQRGLKLSLSTVYRTLNKLKVVGDVITVSGDRGLRYESV | -0.181
19 | HMLSNLYAVLGVGRRATPDEITAAFDAWNARADAGEPIDDPLWERVRYAWDVLSSPSRRDLYDSLVDDATG | -1.71
20 | HMNDGTIRVGTNVTIKPSAKRWATGQNIYYGVKGKTYKVIQMNGNRLLLDKVISWINKGDVYVPGS | -0.501
21 | HMGDLLTVDRVAATSGLGVDTIRYYQRLGLLDPPVRHGRRALYSTAHLDRLVEIRQLADEGFSLAQIATL | -1.08
22 | HMLTGNTAKLFAHLVEVMNPKEFVKINRQTVIVEAGIPRGSVGAAIAKLLETGHLIANASGAYKLT | 0.322
23 | HMVLVGERRQKILEVVSSGKAVTVEELSRILHVSPSTVRRDLRFLESRGLLYRTHGGAMPPV | -1.1
24 | HMSSYMQMQLERLESLLQKNDLTDSDKYDIRQLVEDLDKVPESVSPNLVGAYMTIKNRYASVLKTVL | 0.501
25 | HMNNTIKFSVDENNSGKRLDVYLTENINHLTRSFLKKLIEKEQVKLNKKVLTSPATKVKTKDQITINIIE | 0.172

Row | Sequence | soluble fraction (log2)
26 | HMDRFRYYITEDSVQRGTYPYVDETTLKRFTSQLHKYEQGMISAYGYLEYSKPLTAEQIKDYTLMPSP | 0.0317
27 | HMKVYPIMEAIANNNIELVKLLLEYHADLNIKDSNGNTPLALAKETGAKEVEDLLLQWMKQHT | -0.543
28 | HMTKRTVKSVARKIADFNRERHRMPTYEEMLTLLAVRSKSVVHFWMNKLLQEGILEKDESGHLTFV | -0.124
29 | HMKGTSIELIVPQDIAGLRLDQVLAKLLPQWSRSRLQSWINEKHITVNGQTTTAKQKLWGNETIQIIPPI | -0.66
30 | HMRNGGHTVYRNNGSLFIVVRDGDKLESVASEFRVSPKKLIKYNDLDIHSNVKTGDMIYIRPKA | -0.236
31 | HMSVTRELMLVKVKVTPEQRAGVSAIVDIFRANIIDVGKESMIIELTGNKSKLEAFIDLLDGYEILELART | -0.861
32 | HMNYTSEDIKLASELFFHLLNNRILPANDVLASQYYDNNEIREILENMAEEGGLRIFGTRENLHLVSNGE | -0.432
33 | HMRLSAADLQSYLKGMDYPASRQDLIAHARGHNAPEEAVATLEQFSDRTYRSAADVSVEFGRE | 0.25
34 | HMSDNLSASERKALSHMEGMESVRSSEVADLLGMSQRGAQKLLNRLVDKGLASSFGANRNRRYSVE | 0.306
35 | HMSGITDIITDGKATSRPVVVTDGGHIRVLSPYTSFAIYTLGGMSLPTESRLEPGIYIVVVDSNAVKVAV | -0.619
36 | HMDLSQTVQAKALARVNVREGAGTHFKSLGKLKKGELLPVFRVGNSWASIWWKGRVAYVHTDYLRFESA | -0.847
37 | HMAAHWANFLEALRAGRARRVLVARGVEGWLLKELERLGAPYTLVPRIELDTLLRTTHHQGIAAEVE | -0.692
38 | HMEILVSTRRHEIASLLSRKKRVSFFELFPEKTKEYVVATFLAILEMAKAREVNITQEDTFDEIIVEEA | -0.43
39 | HMRSFGTVAQARGRWKAFYVGPDKRRHTPGVTFSNPIRAQGWLAQELTLIELGQWTPPAQRREKAEVAS | -2.4
40 | HMEVEIPSREALLGLVQKHLKPVSFDEFVSHFKLGDERQQVGIKRRLRAMERDGQLVYTKANSYGLPDRM | 0.194
41 | HMDFDLIAIFEEQFARALSPIEINIIKEWKNSNYSDDMIVKALKEAVKSQVFNFRYIERILINWSQNG | -0.387
42 | HMSDNLTIVRAVYSGLSQRQAAATYHVSRNTVSLLLRHARNRGWLTLEDLAQLDNAAFSKSL | -4.13
43 | HMSVFMIIVLKQHAPQEFVDMLMSSIKAKGVQIDVSKGARKTILGLVGNTSVIDREQIAGYEYVDKVIRV | -0.85
44 | HMGTNTTGWIKIADDWKYIDSNGEYTVNDWRQSADGGWYYLGYNGNMLKNQTTPDGYYVDAEGLWDGMSPA | -0.709
45 | HMANFGSILRNLRISRDITQSELAAKLGVSRSTVGMYETGAREPDFEAMEAIADTFNVDMDYLVGRSQ | -0.28
46 | HMGDVPESLVEKAGHSINAKIISAWGMTETGASTMTRPQDDPERAIYSDGVVLPLMDVRVVNDAGLA | 0.0119
47 | HMVGEYTVKKGDTLWKIAGQTLGSPLRYAEIYELNKDVIEEAALGRGKKNSSNGHWIFQGTVLKIPA | -0.00974
48 | HMAKPAALLFEHRFDGMAEMRFRENIVKNDDGSYTYDEYFLSMLDRAGLEKIVQENMEVWIAYAKQ | -2.17
49 | HMSVLEHVSGNVRRLRLQAGLSQEALARAASVSRRMLVGIESGDVNVSLSTLDRIAAALGVLFPDLVQAP | -1.52
50 | HMRGPPQVLVDVELEDGRVGQIGVRNGDDATELAETFVRAFRLEQSFVGRLANVIQGKIRELLHSQ | -0.889

Row | Sequence | soluble fraction (log2)
51 | HMKIQISGSQRIDENVVVKVAGLSFPQSLLSLEPGQIESKLMQELPVQEVSVQRRLLPPGLDIQLVE | 0.0631
52 | HMRDISTDTSAWTFQDIKRYYDPQDLLTEKQVGQALSLIKGRNLNPLLNEVYIVAYKKKNGGAEFSLIV | -0.28
53 | HMGEQLALLERARTLLEDETLETEVQKELEMLLEDIEAARAEANATQLEDLFEELADLLFDLE | -0.0786
54 | HMINIGANIRAIRKQKNIKQVDLVRLLQLEGVEITRETLVKIESGVQHIKASQLRGIRDALGTTYDELL | -2.95
55 | HMKNLNVIDLSALRTLELKESSDWTLIQKRFKLLVKKYHPDMNAGSKQYEEKLKKITLAYTHLKKLF | -2.42
56 | HMEMPGGVMRTLSTIAYNQPVLQSKLVKVRGPRAYEDVHILRDMGLVSARSVGQTVELSTTPKFAEQF | -0.265
57 | HMFFAGLSPEAARTLDSLPLHSWSSVEQIARQAGLNIETVRKELGLLELSGIALSRQGRFRRA | -0.549
58 | HMFELDELDLVILKNLANGLSKKQIRVKLKKMDLRPNSESAIDKRVSKLFDEFGAKNSTELVAKLIREGL | -2.55
59 | HMLDSPHDDLNRKIVQMLQNDGRLPYKDIAEVLSVSEGTVRNRVQRMRDAGMLNIVALIDPMAI | 0.158
60 | HMKHSLNHLGLWLLPELSRRDIQLREFAHLLGTTSQGLSDLLRGQRFSSHTLAQWQLRFQEKLDEIDQAS | -1.11
61 | HMVDDTGLPTVLISDGRLLERNLHRLHLDHTWLQRRLEENNIPSIQSLFLLTVDKQHQLYFLKK | -1.21
62 | HMAFIEADIGKRIKSLRNKKRITLESLAAETGFTKGYLSKVETSEKAPPVSTLGSIARALGVSISTLLGE | -0.224
63 | HMNLTLMDALKAAGLPVDGINLSMVNKMMEEQMPIDKTSLNQMYQLVQDNKDINVTTLVELKRLG | -0.0277
64 | HMDIYLDDINRKILHLLSQGVKTKSLRDYIDLSMSAIEKRKKHLKDLFLIEDGKDETLLSEARKKGF | -0.672
65 | HMGEPVASSREVAKRFGKEHKHVLAAIRQILVAENSATKFFHETAFEYRGQRFPEYLMNRDGFALLAMGF | -3.1
66 | HMFTYEETIGKSADVYLTIPALKAGKGKIIISVRGSVHELDAMTNNAEKISTGAVVKIVRIEHGNILLVEN | -1.63
67 | HMPTAGYMTVTPDRVKEGQQFLATLRPPYVLKADGLAAGKGVLILPELEEAQRELEEMLGGFLGELSVNR | -0.0813
68 | HMRVDRSALDSIPGVGPGRKRTLLHHFGSARAVEASGLADLESIRGISKALARKIYDFFHPE | -1.38
69 | HMAHLSPNDAARLVGVSRPLLNQILDEGRITFFETAGGHRKIKLAAVLAYIKERDEVAAQLAAART | -0.746
70 | HMIMISKSFEINEDNINKRLDIFLTENLDGLSRGIVQKYISLEQITVNKESSHKDYRLKLDDFIEVKIQAH | -3.76
71 | HMFLTPLEETRLAIEEVVIAKNIAIDLFPRESAIRKQQHELIYHYHLKGLTVGTEKNKRLRIFPRGY | -0.000251
72 | HMTVGEKIQYYRKKIGLSQEELGQKMLLSRQTISLWEMDKTLPTVDNLLRLKEIFSVSIDELLSENEPK | 0.013
73 | HMIDLSELINKTGSAYTNLRPSGTAVIGDDRVDVVTEGTFVEKDRPVKVVAVEGQRVVVREVE | 0.178
74 | HMGGFNATTLQNIEELRRSLSDADQFGRHEVIETIGGSDSRAGKLLKKMLEAGIIEQVKGHGKGRYRFKRT | -0.0136
75 | HMTESIKRDEAIRLNNGRIYTLDAAKIGTNEYEVMLFNPRTGEEIDSAKTSTEADAILQFDRLRRMYHR | 0.1
